Data published in article PMC8894971, “ENB1 encodes a cellulose synthase 5 that directs synthesis of cell wall ingrowths in maize basal endosperm transfer cells”.

T1: MRP1 (His-TF-MRP1) (Zea mays, UniProt K7V5I7 1-241)
T1 sequence: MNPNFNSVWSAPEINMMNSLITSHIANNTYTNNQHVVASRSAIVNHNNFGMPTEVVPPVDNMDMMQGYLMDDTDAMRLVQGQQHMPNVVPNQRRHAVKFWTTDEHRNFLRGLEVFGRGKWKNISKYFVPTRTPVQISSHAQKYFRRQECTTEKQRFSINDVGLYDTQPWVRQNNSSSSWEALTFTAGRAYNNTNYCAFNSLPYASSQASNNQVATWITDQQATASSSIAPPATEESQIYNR

B1: ENB1 promoter WT probe (dsDNA)
DNA 1: CTACTTATTATCTACATATCTATGTGACTA
DNA 2: TAGTCACATAGATATGTAGATAATAAGTAG
B2: ENB1 promoter Mu probe (dsDNA)
DNA 1: CTACTTATGAGCGACAGAGCGATGTGACTA
DNA 2: TAGTCACATCGCTCTGTCGCTCATAAGTAG

Experiments:
[1] = molecular target: T1, MRP1 (His-TF-MRP1); assay: EMSA; LightShift EMSA kit standard protocol, ~200 ng protein, 5 ng biotin probe, 6% native polyacrylamide gel; buffer, salt, pH and temperature not stated; conditions: protein: recombinant; tags: N-terminal His-TF (trigger factor, pCold-TF); blunt (duplex implied)
[2] = molecular target: T1, MRP1 (His-TF-MRP1); assay: EMSA; labeled Mu probe; no shifted band; LightShift EMSA kit standard protocol, ~200 ng protein, 5 ng biotin probe, 6% native polyacrylamide gel; buffer, salt, pH and temperature not stated; conditions: protein: recombinant; tags: N-terminal His-TF (trigger factor, pCold-TF); blunt (duplex implied)

Binder | binding result [1] | binding result [2]
B1 | binds | –
B2 | – | no binding
